From the supplement of paper PMC10567573

B1: TRIM39 (parent)
chain: YPCVLATEGFTSGRHYWEVEVGDK

Variants of: B1
Experiment: protein stability index of a GFP-peptide fusion (GPS, HEK-293T) (PSI 1-6); higher = more stable
Details: c terminus: a fixed tail appended
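Also: lentivirally expressed fusions sorted by FACS into six bins by GFP to DsRed ratio, PSI derived from sequencing read proportions per bin multiplied by bin number.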

Variant | protein stability index
YPCVLATEGFTSKRHYWEVEVGDK [G13K] | 2.39
YPCVLATEGFTSLRHYWEVEVGDK [G13L] | 1.95
YPCVLATEGFTSMRHYWEVEVGDK [G13M] | 1.59
YPCVLATEGFTSNRHYWEVEVGDK [G13N] | 1.57
YPCVLATEGFTSPRHYWEVEVGDK [G13P] | 1.74
YPCVLATEGFTSQRHYWEVEVGDK [G13Q] | 1.71
YPCVLATEGFTSRRHYWEVEVGDK [G13R] | 2.09
YPCVLATEGFTSSRHYWEVEVGDK [G13S] | 2.03
YPCVLATEGFTSTRHYWEVEVGDK [G13T] | 1.72
YPCVLATEGFTSVRHYWEVEVGDK [G13V] | 2.15
YPCVLATEGFTSWRHYWEVEVGDK [G13W] | 1.47
YPCVLATEGFTSYRHYWEVEVGDK [G13Y] | 1.2
YPCVLATEGFTSGAHYWEVEVGDK [R14A] | 2.37
YPCVLATEGFTSGCHYWEVEVGDK [R14C] | 1.79
YPCVLATEGFTSGDHYWEVEVGDK [R14D] | 2.66
YPCVLATEGFTSGEHYWEVEVGDK [R14E] | 3.04
YPCVLATEGFTSGFHYWEVEVGDK [R14F] | 1.81
YPCVLATEGFTSGGHYWEVEVGDK [R14G] | 2.48
YPCVLATEGFTSGHHYWEVEVGDK [R14H] | 1.71
YPCVLATEGFTSGIHYWEVEVGDK [R14I] | 2.17
YPCVLATEGFTSGKHYWEVEVGDK [R14K] | 1.69
YPCVLATEGFTSGLHYWEVEVGDK [R14L] | 2.45
YPCVLATEGFTSGMHYWEVEVGDK [R14M] | 1.66
YPCVLATEGFTSGNHYWEVEVGDK [R14N] | 1.91

Variant | protein stability index
YPCVLATEGFTSGPHYWEVEVGDK [R14P] | 2.32
YPCVLATEGFTSGQHYWEVEVGDK [R14Q] | 2.36
YPCVLATEGFTSGSHYWEVEVGDK [R14S] | 2.07
YPCVLATEGFTSGTHYWEVEVGDK [R14T] | 2.27
YPCVLATEGFTSGVHYWEVEVGDK [R14V] | 2.06
YPCVLATEGFTSGWHYWEVEVGDK [R14W] | 1.66
YPCVLATEGFTSGYHYWEVEVGDK [R14Y] | 1.95
YPCVLATEGFTSGRAYWEVEVGDK [H15A] | 2.61
YPCVLATEGFTSGRCYWEVEVGDK [H15C] | 2.2
YPCVLATEGFTSGRDYWEVEVGDK [H15D] | 2.93
YPCVLATEGFTSGREYWEVEVGDK [H15E] | 3.05
YPCVLATEGFTSGRFYWEVEVGDK [H15F] | 1.9
YPCVLATEGFTSGRGYWEVEVGDK [H15G] | 1.98
YPCVLATEGFTSGRIYWEVEVGDK [H15I] | 1.22
YPCVLATEGFTSGRKYWEVEVGDK [H15K] | 2.06
YPCVLATEGFTSGRLYWEVEVGDK [H15L] | 1.56
YPCVLATEGFTSGRMYWEVEVGDK [H15M] | 1.32
YPCVLATEGFTSGRNYWEVEVGDK [H15N] | 2.76
YPCVLATEGFTSGRPYWEVEVGDK [H15P] | 2.16
YPCVLATEGFTSGRQYWEVEVGDK [H15Q] | 2.6
YPCVLATEGFTSGRRYWEVEVGDK [H15R] | 1.97
YPCVLATEGFTSGRSYWEVEVGDK [H15S] | 2.16
YPCVLATEGFTSGRTYWEVEVGDK [H15T] | 2.17
YPCVLATEGFTSGRVYWEVEVGDK [H15V] | 2.27

Variant | protein stability index
YPCVLATEGFTSGRWYWEVEVGDK [H15W] | 2.1
YPCVLATEGFTSGRYYWEVEVGDK [H15Y] | 2.58
YPCVLATEGFTSGRHAWEVEVGDK [Y16A] | 2.38
YPCVLATEGFTSGRHCWEVEVGDK [Y16C] | 1.5
YPCVLATEGFTSGRHDWEVEVGDK [Y16D] | 3.52
YPCVLATEGFTSGRHEWEVEVGDK [Y16E] | 2.6
YPCVLATEGFTSGRHFWEVEVGDK [Y16F] | 1.2
YPCVLATEGFTSGRHGWEVEVGDK [Y16G] | 2.98
YPCVLATEGFTSGRHHWEVEVGDK [Y16H] | 2.04
YPCVLATEGFTSGRHIWEVEVGDK [Y16I] | 2.33
YPCVLATEGFTSGRHKWEVEVGDK [Y16K] | 2.38
YPCVLATEGFTSGRHLWEVEVGDK [Y16L] | 1.76
YPCVLATEGFTSGRHMWEVEVGDK [Y16M] | 2.45
YPCVLATEGFTSGRHNWEVEVGDK [Y16N] | 2.56
YPCVLATEGFTSGRHPWEVEVGDK [Y16P] | 1.78
YPCVLATEGFTSGRHQWEVEVGDK [Y16Q] | 2.16
YPCVLATEGFTSGRHRWEVEVGDK [Y16R] | 2.02
YPCVLATEGFTSGRHSWEVEVGDK [Y16S] | 1.75
YPCVLATEGFTSGRHTWEVEVGDK [Y16T] | 1.35
YPCVLATEGFTSGRHVWEVEVGDK [Y16V] | 2.08
YPCVLATEGFTSGRHWWEVEVGDK [Y16W] | 4.12
YPCVLATEGFTSGRHYAEVEVGDK [W17A] | 3.49
YPCVLATEGFTSGRHYCEVEVGDK [W17C] | 3.22
YPCVLATEGFTSGRHYDEVEVGDK [W17D] | 3.88

Variant | protein stability index
YPCVLATEGFTSGRHYEEVEVGDK [W17E] | 3.84
YPCVLATEGFTSGRHYFEVEVGDK [W17F] | 2.41
YPCVLATEGFTSGRHYGEVEVGDK [W17G] | 3.44
YPCVLATEGFTSGRHYHEVEVGDK [W17H] | 3.07
YPCVLATEGFTSGRHYIEVEVGDK [W17I] | 2.95
YPCVLATEGFTSGRHYKEVEVGDK [W17K] | 2.76
YPCVLATEGFTSGRHYLEVEVGDK [W17L] | 2.97
YPCVLATEGFTSGRHYMEVEVGDK [W17M] | 3.21
YPCVLATEGFTSGRHYNEVEVGDK [W17N] | 3.77
YPCVLATEGFTSGRHYPEVEVGDK [W17P] | 3.54
YPCVLATEGFTSGRHYQEVEVGDK [W17Q] | 3.68
YPCVLATEGFTSGRHYREVEVGDK [W17R] | 2.88
YPCVLATEGFTSGRHYSEVEVGDK [W17S] | 3.62
YPCVLATEGFTSGRHYTEVEVGDK [W17T] | 3.6
YPCVLATEGFTSGRHYVEVEVGDK [W17V] | 2.44
YPCVLATEGFTSGRHYYEVEVGDK [W17Y] | 2.24
YPCVLATEGFTSGRHYWAVEVGDK [E18A] | 3.12
YPCVLATEGFTSGRHYWDVEVGDK [E18D] | 1.45
YPCVLATEGFTSGRHYWFVEVGDK [E18F] | 1.81
YPCVLATEGFTSGRHYWGVEVGDK [E18G] | 2.82
YPCVLATEGFTSGRHYWHVEVGDK [E18H] | 1.43
YPCVLATEGFTSGRHYWIVEVGDK [E18I] | 1.89
